By Kd is commonly meant the concentration at which binding is half-saturated. A higher Kd goes with a looser complex.

Consider one molecule from paper PMC4822050, “Hemi-methylated DNA opens a closed conformation of UHRF1 to facilitate its histone recognition” (Nature Communications, 2016).

The target in experiment [1] is T1, TTD–PHD of UHRF1 (residues 134–366) (human, UniProt Q96T88 134-366).
T1 sequence (looked up): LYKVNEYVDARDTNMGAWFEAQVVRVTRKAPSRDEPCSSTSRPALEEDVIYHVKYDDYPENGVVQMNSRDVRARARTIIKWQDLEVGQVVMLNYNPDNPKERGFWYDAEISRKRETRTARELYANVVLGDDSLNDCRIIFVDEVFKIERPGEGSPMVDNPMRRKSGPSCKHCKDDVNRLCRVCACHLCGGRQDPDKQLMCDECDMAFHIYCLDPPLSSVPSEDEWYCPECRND
Kind of experiment: ITC; 0.05 mM protein in the cell, 0.5 mM protein or peptide in the syringe, iTC200, 18 °C, 10 mM HEPES pH 8.0, 100 mM NaCl. The following applies: both partners purified. (In general: In ITC the heat of successive injections is recorded.)

For experiment [2], the target named is T2, UHRF1^Δ627–674 (human, UniProt Q96T88 1-793, Δ627–674).
T2 construct: also called spacer deletion mutant
T2 sequence (looked up): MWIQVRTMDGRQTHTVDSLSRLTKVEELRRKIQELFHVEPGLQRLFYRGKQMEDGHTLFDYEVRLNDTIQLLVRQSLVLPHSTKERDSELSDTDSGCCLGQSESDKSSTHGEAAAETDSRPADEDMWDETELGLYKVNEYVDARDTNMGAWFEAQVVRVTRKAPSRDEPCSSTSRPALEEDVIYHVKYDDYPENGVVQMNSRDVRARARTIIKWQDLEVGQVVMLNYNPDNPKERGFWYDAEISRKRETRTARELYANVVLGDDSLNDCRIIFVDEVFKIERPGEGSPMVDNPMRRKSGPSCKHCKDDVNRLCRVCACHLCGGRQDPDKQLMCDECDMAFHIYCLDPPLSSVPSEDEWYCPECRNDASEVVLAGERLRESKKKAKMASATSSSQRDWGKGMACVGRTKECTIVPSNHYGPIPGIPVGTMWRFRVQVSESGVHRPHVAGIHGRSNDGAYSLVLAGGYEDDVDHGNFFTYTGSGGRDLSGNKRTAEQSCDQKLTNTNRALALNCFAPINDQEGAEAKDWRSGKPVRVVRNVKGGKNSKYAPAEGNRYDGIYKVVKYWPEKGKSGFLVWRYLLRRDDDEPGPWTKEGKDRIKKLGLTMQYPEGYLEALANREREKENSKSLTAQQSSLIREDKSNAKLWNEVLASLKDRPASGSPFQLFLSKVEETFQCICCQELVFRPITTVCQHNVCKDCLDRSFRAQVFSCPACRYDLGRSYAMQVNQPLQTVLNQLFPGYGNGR
Described as above. Conditions: both partners purified.

For ARTKQTARKSTGGKAPR (peptide, UniProt P68431 2-18, looked up, trimethyl-lysine at K9, histone H3, residues 1–17) [H3K9me3 peptide (1–17)], in experiment [1], the Kd was 150 nM. Besides, the “fold increase in binding affinity against full-length UHRF1” value in experiment [2] came out at 4 fold.
